The experiment addresses recombinant influenza HA3-protein (from H3N2, Wyoming, March 2003, Sino Biological Inc.) (influenza H3N2, Wyoming, March 2003). Briefly: SPR imaging (IBIS MX96), antibody captured on anti-human-IgG chip, HA3 injected at 1 µg/ml, global 1:1 fit.

B1: AT10-004 (antibody, V domains shown)
VH: RASQSVSRYLA
VL: RASQSVSRYLA
B1: the Kd was determined as 0.07 nM, the koff worked out at 1e-06 s⁻¹ and the kon turned out to be 14000 M⁻¹ s⁻¹.

What is called Kd is the concentration at which binding is half-saturated. Usually koff stands for a measure of how fast the partners let go of each other. As usually defined, the kon is the rate constant with which the complex forms.
